PMC3805550

Target: F-actin from chicken pectoral (skeletal) muscle (chicken) (UniProt P68139)
Test: co-sedimentation; 5 uM F-actin with 0.1-6 uM AS-Cdc8p, 20 mM MOPS pH 7.0, 150 mM NaCl, 2 mM MgCl2, 20 C, 60,000 rpm 30 min; pellets and supernatants on SDS-PAGE, densitometry; Hill equation fit, apparent constant (Kapp)

Ka: 6.3e+06 M⁻¹
Substance: AS-Cdc8p wildtype (Ala-Ser-Cdc8p, S. pombe tropomyosin with AlaSer at the N terminus) (natural protein)
